Measured values from patent US20070056058A1 (TARGETED GROWTH, published 2007).

What was measured:
[1] = target: AtcyclinD2;1/AtCDKA active kinase complex (Arabidopsis) (UniProt P42752); assay: cell-based or functional assay
[2] = target: T1, AtcyclinD2;1/AtCDKA active kinase complex (Arabidopsis, UniProt P42752 1-361; P24100 1-294); assay: cell-based or functional assay
[3] = target: T2, Arabidopsis cyclin D2;1 (AtcyclinD2;1), FLAG tagged (Arabidopsis, UniProt P42752 1-361); assay: in vitro binding, graded (column Cyclin binding)
T2 construct: Made in Sf9 insect cells from the pAcHLT transfer vector; used as insect cell protein extract
T2 sequence: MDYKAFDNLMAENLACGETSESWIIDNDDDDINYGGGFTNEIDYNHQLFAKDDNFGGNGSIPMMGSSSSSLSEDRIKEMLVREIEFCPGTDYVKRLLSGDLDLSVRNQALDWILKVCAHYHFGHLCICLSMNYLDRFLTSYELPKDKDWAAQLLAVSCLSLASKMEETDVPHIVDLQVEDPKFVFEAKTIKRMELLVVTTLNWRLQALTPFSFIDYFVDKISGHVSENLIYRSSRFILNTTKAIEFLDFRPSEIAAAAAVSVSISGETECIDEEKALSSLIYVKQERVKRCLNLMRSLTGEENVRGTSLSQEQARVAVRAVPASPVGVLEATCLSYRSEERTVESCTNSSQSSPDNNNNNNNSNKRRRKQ

[4] = target: T1, AtcyclinD2;1/AtCDKA active kinase …; assay: in vitro binding experiments

Chain of AtcyclinD2;1/AtCDKA active kinase complex (Arabidopsis) (P24100 other isoform, or with tags, fused parts or gaps limits assumed): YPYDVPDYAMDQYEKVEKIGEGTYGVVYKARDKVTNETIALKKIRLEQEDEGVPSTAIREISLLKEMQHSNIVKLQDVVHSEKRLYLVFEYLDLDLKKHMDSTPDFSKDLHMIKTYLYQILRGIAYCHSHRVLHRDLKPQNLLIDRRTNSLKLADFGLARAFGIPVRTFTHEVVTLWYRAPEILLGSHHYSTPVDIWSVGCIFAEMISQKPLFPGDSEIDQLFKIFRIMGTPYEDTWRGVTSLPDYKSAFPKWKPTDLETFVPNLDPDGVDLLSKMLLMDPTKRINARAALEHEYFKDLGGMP
T1 sequence (P24100 other isoform, or with tags, fused parts or gaps limits assumed): as above

## BnKrp1 E164A; W165A, construct #555
[1]
  kinase activity restored by 5 µg mutant in the presence of wild-type KRP1: 14%
  kinase activity restored by 10 µg mutant in the presence of wild-type KRP1: 15%

## BnKrp1 Y149A; F151A; F153A, construct #598
[1]
  kinase activity restored by 5 µg mutant in the presence of 0.6 µg wild-type KRP1: < 55%
  kinase activity restored by 10 µg mutant in the presence of wild-type KRP1: < 80%

## ZmKRP4 (maize KRP, Genbank accession # AY986792)
[1]
  IC50 of kinase inhibition: 0.035 µg

## BnKrp1 #462 (E129A, E130A, I131A, D132A), cyclin binding region mutant
[1]
  IC50 (inhibitory concentration that reduces the kinase activity by 50%): 1.25 µg

B1: BnKRP1 wild type (Brassica napus Krp1), construct BnKrp #461 (other, not shown: small tags and cut ends)
chain: MVRKCRKTKGTVGASSTYMQLRSRRIVYRSEKASSSSSSCCASNNNGVIDLEEERDGETETSSCRRSSKRKLFENLREKESMENSQQIVAGFDSAVKESSDCCCSRRTSLSTTEEKGKSATEQPPTAVEIEDFFVEAEKQLHDNFKKKYNFDFEKEKPLEGRYEWVKL
[2]
  IC50 (inhibitory concentration that reduces the kinase activity by 50%): 0.035 µg

B2: BnKrp1 F151A, construct #572 (other)
chain: MVRKCRKTKGTVGASSTYMQLRSRRIVYRSEKASSSSSSCCASNNNGVIDLEEERDGETETSSCRRSSKRKLFENLREKESMENSQQIVAGFDSAVKESSDCCCSRRTSLSTTEEKGKSATEQPPTAVEIEDFFVEAEKQLHDNFKKKYNADFEKEKPLEGRYEWVKL
notes: also called BnKrp1 #572; not shown: N-terminal 6xHis and poly-Myc tags of pET16b-5MYC
[3]
  binding result: binds
[4]
  binding result: binds

B3: BnKrp1 Y149A, construct #587 (other)
chain: MVRKCRKTKGTVGASSTYMQLRSRRIVYRSEKASSSSSSCCASNNNGVIDLEEERDGETETSSCRRSSKRKLFENLREKESMENSQQIVAGFDSAVKESSDCCCSRRTSLSTTEEKGKSATEQPPTAVEIEDFFVEAEKQLHDNFKKKANFDFEKEKPLEGRYEWVKL
notes: also called BnKrp1 #587; not shown: N-terminal 6xHis and poly-Myc tags of pET16b-5MYC
[4]
  binding result: binds
